Reference: PMC6949303 (Nature Communications, 2020)
One block for each binder: values may come before it.

B7: wild-type IgE-Fc3-4 (co-expressed with the ligelizumab scFv for crystallisation) (domain or fragment, human)
chain: CADSNPRGVSAYLSRPSPFDLFIRKSPTITCLVVDLAPSKGTVNLTWSRASGKPVNHSTRKEEKQRNGTLTVTSTLPVGTRDWIEGETYQCRVTHPHLPRALMRSTTKTSGPRAAPEVYAFATPEWPGSRDKRTLACLIQNFMPEDISVQWLHNEVQLPDARHSTTQPRKTKGSGFFVFSRLEVTRAEWEQKDEFICRAVHEAASPSQTVQRAVSVNP
notes: human IgE heavy chain constant region, Cε3 and Cε4 domains, wild type (C328); also called C328 IgE-Fc3-4 fragment; wt C328 IgE-Fc3-4; source: HEK 293-6E, co-transfected with ligelizumab scFv, complex purified from supernatant (Ni-NTA, Superdex 200)

Experiments:
Ligelizumab IgG = biological target: T1, Ligelizumab IgG; experiment: SPR; 100 RU ligelizumab or omalizumab IgG immobilised by amine coupling on CM5 (ligelizumab pH 5.0, omalizumab pH 4.5); 0.3-5 nM C328 or C335 IgE-Fc3-4 injected 120 s, dissociation 180 s; HBS-EP+, 10 ul/min, Biacore X100; 1:1 langmuir fit; conditions: both partners purified
T1 construct: constant region of the IgG heavy chain; constant region of the light chain; also called QGE031; source: produced and provided by Novartis Pharma AG

Omalizumab IgG = biological target: T2, Omalizumab IgG; experiment: as above; conditions: both partners purified
T2 construct: also called Xolair; source: produced and provided by Novartis Pharma AG

wild-type C328 IgE-Fc3-4 [1] = biological target: T3, wild-type C328 IgE-Fc3-4 (Homo sapiens, UniProt P01854); experiment: as above; conditions: both partners purified
T3 construct: human IgE heavy chain constant region, Fc fragment of the Cε3 and Cε4 domains, wild-type variant named C328; PDB 6UQR holds wt C328 IgE-Fc3-4 made in HEK 293-6E for the crystal; also called wt C328 IgE-Fc3-4

wild-type C328 IgE-Fc3-4 [2] = biological target: T4, wild-type C328 IgE-Fc3-4 (human, UniProt P01854); experiment: SPR; Biacore X100, CM5 chip, HBS-EP+; 100 RU ligelizumab or omalizumab IgG immobilised; 0.3–5 nM C328 or C335 IgE-Fc3-4 injected 120 s, dissociation 180 s; conditions: both partners purified
T4 construct: human IgE heavy chain constant region, Cε3 and Cε4 domains, variant named C328; also called wt C328 IgE-Fc3-4

wild-type C328 IgE-Fc3-4 [3] = biological target: T5, wild-type C328 IgE-Fc3-4 (human, UniProt P01854 209-426); experiment: SPR; 1000 RU FcεRIα immobilised, 20 nM IgE-Fc3-4 captured; 3.13–100 nM ligelizumab or omalizumab injected 120 s, dissociation 180 s; conditions: both partners purified
T5 construct: human IgE heavy chain constant region, Cε3 and Cε4 domains, variant named C328; also called wt C328 IgE-Fc3-4

[4] = biological target: B7; experiment: crystal structure; scFv:IgE-Fc3-4 complex, hanging drop, 0.2 M Na thiocyanate pH 6.9, 20% PEG3350, 10 mM spermidine, 14 °C; 3.65 Å; conditions: both partners purified
[5] = biological target: the molecule itself; experiment: as above

B3: Ligelizumab IgG (antibody, V domains shown)
VH: QVQLVQSGAEVMKPGSSVKVSCKASGYTFSWYWLEWVRQAPGHGLEWMGEIDPGTFTTNYNEKFKARVTFTADTSTSTAYMELSSLRSEDTAVYYCARFSHFSGSNYDYFDYWGQGTLVTVSS
VL: EIVMTQSPATLSVSPGERATLSCRASQSIGTNIHWYQQKPGQAPRLLIYYASESISGIPARFSGSGSGTEFTLTISSLQSEDFAVYYCQQSWSWPTTFGGGTKVEIK
notes: constant region of the IgG heavy chain; constant region of the light chain; also called QGE031; source: produced and provided by Novartis Pharma AG
Kd (wild-type C328 IgE-Fc3-4 [1]): 0.011 nM
koff (wild-type C328 IgE-Fc3-4 [1]): 0.00014 s⁻¹
kon (wild-type C328 IgE-Fc3-4 [1]): 1.3e+07 M⁻¹ s⁻¹

B4: Ligelizumab IgG (antibody, V domains shown)
VH: QVQLVQSGAEVMKPGSSVKVSCKASGYTFSWYWLEWVRQAPGHGLEWMGEIDPGTFTTNYNEKFKARVTFTADTSTSTAYMELSSLRSEDTAVYYCARFSHFSGSNYDYFDYWGQGTLVTVSS
VL: EIVMTQSPATLSVSPGERATLSCRASQSIGTNIHWYQQKPGQAPRLLIYYASESISGIPARFSGSGSGTEFTLTISSLQSEDFAVYYCQQSWSWPTTFGGGTKVEIK
notes: heavy chain constant region of the IgG; light chain constant region; also called QGE031; source: produced and provided by Novartis Pharma AG
fold higher affinity than C335 IgE-Fc3-4 (wild-type C328 IgE-Fc3-4 [2]): ~60 fold

B5: Recombinant extracellular part of human FcεRIα (receptor, UniProt P12319 26-205, looked up)
chain: VPQKPKVSLNPPWNRIFKGENVTLTCNGNNFFEVSSTKWFHNGSLSEETNSSLNIVNAKFEDSGEYKCQHQQVNESEPVYLEVFSDWLLLQASAEVVMEGQPLFLRCHGWRNWDVYKVIYYKDGEALKYWYENHNISITNATVEDSGTYYCTGKVWQLDYESEPLNITVIKAPREKYWLQ
notes: also called recombinant human FcεRIα
binding result (wild-type C328 IgE-Fc3-4 [3]): binds

Binder: B7
stoichiometry N [5]: 2

Now from value to binder:

Kd (Ligelizumab IgG): 0.64 nM
koff (Ligelizumab IgG): 0.0065 s⁻¹
kon (Ligelizumab IgG): 1.1e+07 M⁻¹ s⁻¹
B1: mutated C335 IgE-Fc3-4 (domain or fragment)
chain: AADSNPRCVSAYLSRPSPFDLFIRKSPTITCLVVDLAPSKGTVNLTWSRASGKPVNHSTRKEEKQRNGTLTVTSTLPVGTRDWIEGETYQCRVTHPHLPRALMRSTTKTSGPRAAPEVYAFATPEWPGSRDKRTLACLIQNFMPEDISVQWLHNEVQLPDARHSTTQPRKTKGSGFFVFSRLEVTRAEWEQKDEFICRAVHEAASPSQTVQRAVSVNPGK
modifications: Disulfide-linked homodimer via Cys335 (entity position 11), closed Cε3 conformation; N-glycosylated at Asn394. The change is not given; it is taken from 5HYS entity 3 (C328A/G335C). …

Kd (Omalizumab IgG): 0.608 nM
koff (Omalizumab IgG): 0.0049 s⁻¹
kon (Omalizumab IgG): 7.7e+06 M⁻¹ s⁻¹
B2: mutated C335 IgE-Fc3-4 (domain or fragment)
chain: AADSNPRCVSAYLSRPSPFDLFIRKSPTITCLVVDLAPSKGTVNLTWSRASGKPVNHSTRKEEKQRNGTLTVTSTLPVGTRDWIEGETYQCRVTHPHLPRALMRSTTKTSGPRAAPEVYAFATPEWPGSRDKRTLACLIQNFMPEDISVQWLHNEVQLPDARHSTTQPRKTKGSGFFVFSRLEVTRAEWEQKDEFICRAVHEAASPSQTVQRAVSVNPGK

binding result [4]: binds
B6: ligelizumab single chain fragment variable (scFv) (scFv)
scFv: QVQLVQSGAEVMKPGSSVKVSCKASGYTFSWYWLEWVRQAPGHGLEWMGEIDPGTFTTNYNEKFKARVTFTADTSTSTAYMELSSLRSEDTAVYYCARFSHFSGSNYDYFDYWGQGTLVTVSSGTGGSGGGGSGGGGSGGGASEIVMTQSPATLSVSPGERATLSCRASQSIGTNIHWYQQKPGQAPRLLIYYASESISGIPARFSGSGSGTEFTLTISSLQSEDFAVYYCQQSWSWPTTFGGGTKVEIKENLYFQ
notes: ligelizumab VH domain; GTG(GSGGG)3AS linker; ligelizumab VL domain; also called ligelizumab scFv; ligelizumab single chain Fv; source: HEK 293-6E, co-transfected with IgE-Fc3-4, complex purified from supernatant (Ni-NTA, Superdex 200); not shown: His8, C-terminal, cleaved
